Experimental findings from US12679878B2, “CRF2 receptor agonists and their use in therapy” (SANOFI, priority 2020, dated 2026) are described below.

Assay [1] addresses T1, anti-target CRF1R receptor (UniProt P34998 24-415, limits assumed).
T1 sequence (looked up): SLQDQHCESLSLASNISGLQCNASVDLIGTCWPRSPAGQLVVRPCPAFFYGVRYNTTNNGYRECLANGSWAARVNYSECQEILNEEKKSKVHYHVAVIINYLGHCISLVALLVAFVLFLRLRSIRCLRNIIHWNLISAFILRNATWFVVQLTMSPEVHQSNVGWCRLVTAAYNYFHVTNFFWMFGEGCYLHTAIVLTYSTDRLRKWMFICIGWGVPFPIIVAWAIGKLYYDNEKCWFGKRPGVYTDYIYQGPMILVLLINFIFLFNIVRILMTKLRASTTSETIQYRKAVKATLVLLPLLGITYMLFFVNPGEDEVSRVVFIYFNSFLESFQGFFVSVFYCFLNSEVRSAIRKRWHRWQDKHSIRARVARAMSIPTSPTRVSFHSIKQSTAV
Description: cell-based or functional assay.

The target in assay [2] is rat CRF2R α receptor (rat, UniProt P47866 20-411). Description: cell-based or functional assay.
Chain of rat CRF2R α receptor (P47866 20-411): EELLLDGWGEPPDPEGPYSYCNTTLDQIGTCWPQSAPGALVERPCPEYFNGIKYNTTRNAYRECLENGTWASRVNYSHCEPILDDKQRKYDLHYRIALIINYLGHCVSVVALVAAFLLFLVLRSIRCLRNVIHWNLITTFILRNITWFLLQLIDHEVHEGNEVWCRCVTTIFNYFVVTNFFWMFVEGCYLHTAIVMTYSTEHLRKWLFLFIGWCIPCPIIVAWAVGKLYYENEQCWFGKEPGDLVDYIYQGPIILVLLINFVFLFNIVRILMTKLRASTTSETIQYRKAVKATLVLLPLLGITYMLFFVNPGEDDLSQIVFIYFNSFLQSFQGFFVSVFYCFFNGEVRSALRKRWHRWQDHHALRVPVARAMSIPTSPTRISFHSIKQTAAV

Starred links: 1 amine or outer side, 2 acyl side, 3 side chain; linkers in the order of their positions; H or OH if unused. Non-standard residues stand in square brackets, D forms with d. Groups on a side chain read outwards from the residue. No end group written: not given here. *: point of attachment. C18 diacid = O=C(O)CCCCCCCCCCCCCCCCC(=O)*; γGlu = O=C(O)[C@H](CCC(=O)[*:2])N[*:1]; Palmitoyl = CCCCCCCCCCCCCCCC(=O)*; AEEA = NCCOCCOCC(=O)O

B1: peptide of SEQ ID NO: 24 (peptide)
peptide: IVLSLD[dV]PTKLK([AEEA-AEEA-γGlu-C18 diacid])QKLLKQERQRKEREQAEKNKRILERV-NH2
modifications: N-terminus assumed
SMILES: CC[C@H](C)[C@H](N)C(=O)N[C@H](C(=O)N[C@@H](CC(C)C)C(=O)N[C@@H](CO)C(=O)N[C@@H](CC(C)C)C(=O)N[C@@H](CC(=O)O)C(=O)N[C@@H](C(=O)N1CCC[C@H]1C(=O)N[C@H](C(=O)N[C@@H](CCCCN)C(=O)N[C@@H](CC(C)C)C(=O)N[C@@H](CCCCNC(=O)COCCOCCNC(=O)COCCOCCNC(=O)CC[C@H](NC(=O)CCCCCCCCCCCCCCCCC(=O)O)C(=O)O)C(=O)N[C@@H](CCC(N)=O)C(=O)N[C@@H](CCCCN)C(=O)N[C@@H](CC(C)C)C(=O)N[C@@H](CC(C)C)C(=O)N[C@@H](CCCCN)C(=O)N[C@@H](CCC(N)=O)C(=O)N[C@@H](CCC(=O)O)C(=O)N[C@@H](CCCNC(=N)N)C(=O)N[C@@H](CCC(N)=O)C(=O)N[C@@H](CCCNC(=N)N)C(=O)N[C@@H](CCCCN)C(=O)N[C@@H](CCC(=O)O)C(=O)N[C@@H](CCCNC(=N)N)C(=O)N[C@@H](CCC(=O)O)C(=O)N[C@@H](CCC(N)=O)C(=O)N[C@@H](C)C(=O)N[C@@H](CCC(=O)O)C(=O)N[C@@H](CCCCN)C(=O)N[C@@H](CC(N)=O)C(=O)N[C@@H](CCCCN)C(=O)N[C@@H](CCCNC(=N)N)C(=O)N[C@H](C(=O)N[C@@H](CC(C)C)C(=O)N[C@@H](CCC(=O)O)C(=O)N[C@@H](CCCNC(=N)N)C(=O)N[C@H](C(N)=O)C(C)C)[C@@H](C)CC)[C@@H](C)O)C(C)C)C(C)C
For the molecule B1, in assay [1], the “EC50[nM] 0% HSA (cAMP, CRF1R-overexpression CHO cells)” value (shortened to “EC50[nM] 0% HSA”) is over 1000 nM and the “Emax (%) (cAMP, CRF1R-overexpression CHO cells)” value (shortened to “Emax (%)”) was determined as 1.48%. In addition, in assay [2], the “EC50 [nM], 0% HSA (cAMP, A7R5 cells)” value was found to be 4.94 nM.

B2: peptide of SEQ ID NO: 13 (peptide)
peptide: FTLSLDVPTKIK([AEEA-AEEA-γGlu-C18 diacid])QILFKQQKQKKERQQAEKNKQLLEQI-NH2
modifications: N-terminus assumed
SMILES: CC[C@H](C)[C@H](NC(=O)[C@H](CCC(N)=O)NC(=O)[C@H](CCC(=O)O)NC(=O)[C@H](CC(C)C)NC(=O)[C@H](CC(C)C)NC(=O)[C@H](CCC(N)=O)NC(=O)[C@H](CCCCN)NC(=O)[C@H](CC(N)=O)NC(=O)[C@H](CCCCN)NC(=O)[C@H](CCC(=O)O)NC(=O)[C@H](C)NC(=O)[C@H](CCC(N)=O)NC(=O)[C@H](CCC(N)=O)NC(=O)[C@H](CCCNC(=N)N)NC(=O)[C@H](CCC(=O)O)NC(=O)[C@H](CCCCN)NC(=O)[C@H](CCCCN)NC(=O)[C@H](CCC(N)=O)NC(=O)[C@H](CCCCN)NC(=O)[C@H](CCC(N)=O)NC(=O)[C@H](CCC(N)=O)NC(=O)[C@H](CCCCN)NC(=O)[C@H](Cc1ccccc1)NC(=O)[C@H](CC(C)C)NC(=O)[C@@H](NC(=O)[C@H](CCC(N)=O)NC(=O)[C@H](CCCCNC(=O)COCCOCCNC(=O)COCCOCCNC(=O)CC[C@H](NC(=O)CCCCCCCCCCCCCCCCC(=O)O)C(=O)O)NC(=O)[C@@H](NC(=O)[C@H](CCCCN)NC(=O)[C@@H](NC(=O)[C@@H]1CCCN1C(=O)[C@@H](NC(=O)[C@H](CC(=O)O)NC(=O)[C@H](CC(C)C)NC(=O)[C@H](CO)NC(=O)[C@H](CC(C)C)NC(=O)[C@@H](NC(=O)[C@@H](N)Cc1ccccc1)[C@@H](C)O)C(C)C)[C@@H](C)O)[C@@H](C)CC)[C@@H](C)CC)C(N)=O
As to B2, in assay [1], the “EC50[nM] 0% HSA” value is over 1000 nM and the “Emax (%)” value was determined as 4.3%. For the same molecule, the “EC50 [nM], 0% HSA (cAMP, A7R5 cells)” value in assay [2] is 2.5 nM.

B3: peptide of SEQ ID NO: 15 (peptide)
peptide: FTLSLDVPTKIK([γGlu-Palmitoyl])QKLFKQAKQKKQRQKAKTNAQILARV-NH2
modifications: N-terminus assumed
SMILES: CCCCCCCCCCCCCCCC(=O)N[C@@H](CCC(=O)NCCCC[C@H](NC(=O)[C@@H](NC(=O)[C@H](CCCCN)NC(=O)[C@@H](NC(=O)[C@@H]1CCCN1C(=O)[C@@H](NC(=O)[C@H](CC(=O)O)NC(=O)[C@H](CC(C)C)NC(=O)[C@H](CO)NC(=O)[C@H](CC(C)C)NC(=O)[C@@H](NC(=O)[C@@H](N)Cc1ccccc1)[C@@H](C)O)C(C)C)[C@@H](C)O)[C@@H](C)CC)C(=O)N[C@@H](CCC(N)=O)C(=O)N[C@@H](CCCCN)C(=O)N[C@@H](CC(C)C)C(=O)N[C@@H](Cc1ccccc1)C(=O)N[C@@H](CCCCN)C(=O)N[C@@H](CCC(N)=O)C(=O)N[C@@H](C)C(=O)N[C@@H](CCCCN)C(=O)N[C@@H](CCC(N)=O)C(=O)N[C@@H](CCCCN)C(=O)N[C@@H](CCCCN)C(=O)N[C@@H](CCC(N)=O)C(=O)N[C@@H](CCCNC(=N)N)C(=O)N[C@@H](CCC(N)=O)C(=O)N[C@@H](CCCCN)C(=O)N[C@@H](C)C(=O)N[C@@H](CCCCN)C(=O)N[C@H](C(=O)N[C@@H](CC(N)=O)C(=O)N[C@@H](C)C(=O)N[C@@H](CCC(N)=O)C(=O)N[C@H](C(=O)N[C@@H](CC(C)C)C(=O)N[C@@H](C)C(=O)N[C@@H](CCCNC(=N)N)C(=O)N[C@H](C(N)=O)C(C)C)[C@@H](C)CC)[C@@H](C)O)C(=O)O
For B3, in assay [1], the “EC50[nM] 0% HSA” value is over 1000 nM and the “Emax (%)” value is 7.75%. For the same molecule, the “EC50 [nM], 0% HSA (cAMP, A7R5 cells)” value in assay [2] stood at 1.38 nM.

B4: peptide of SEQ ID NO: 39 (peptide)
peptide: IVLSLDVPIKLK([AEEA-AEEA-γGlu-C18 diacid])QILLEQERQRKERQQAETNAQILAQV-NH2
modifications: N-terminus assumed
SMILES: CC[C@H](C)[C@H](N)C(=O)N[C@H](C(=O)N[C@@H](CC(C)C)C(=O)N[C@@H](CO)C(=O)N[C@@H](CC(C)C)C(=O)N[C@@H](CC(=O)O)C(=O)N[C@H](C(=O)N1CCC[C@H]1C(=O)N[C@H](C(=O)N[C@@H](CCCCN)C(=O)N[C@@H](CC(C)C)C(=O)N[C@@H](CCCCNC(=O)COCCOCCNC(=O)COCCOCCNC(=O)CC[C@H](NC(=O)CCCCCCCCCCCCCCCCC(=O)O)C(=O)O)C(=O)N[C@@H](CCC(N)=O)C(=O)N[C@H](C(=O)N[C@@H](CC(C)C)C(=O)N[C@@H](CC(C)C)C(=O)N[C@@H](CCC(=O)O)C(=O)N[C@@H](CCC(N)=O)C(=O)N[C@@H](CCC(=O)O)C(=O)N[C@@H](CCCNC(=N)N)C(=O)N[C@@H](CCC(N)=O)C(=O)N[C@@H](CCCNC(=N)N)C(=O)N[C@@H](CCCCN)C(=O)N[C@@H](CCC(=O)O)C(=O)N[C@@H](CCCNC(=N)N)C(=O)N[C@@H](CCC(N)=O)C(=O)N[C@@H](CCC(N)=O)C(=O)N[C@@H](C)C(=O)N[C@@H](CCC(=O)O)C(=O)N[C@H](C(=O)N[C@@H](CC(N)=O)C(=O)N[C@@H](C)C(=O)N[C@@H](CCC(N)=O)C(=O)N[C@H](C(=O)N[C@@H](CC(C)C)C(=O)N[C@@H](C)C(=O)N[C@@H](CCC(N)=O)C(=O)N[C@H](C(N)=O)C(C)C)[C@@H](C)CC)[C@@H](C)O)[C@@H](C)CC)[C@@H](C)CC)C(C)C)C(C)C
Regarding B4, in assay [1], the “EC50[nM] 0% HSA” value was over 1000 nM and the “Emax (%)” value amounted to 13.3%. In addition, the “EC50 [nM], 0% HSA (cAMP, A7R5 cells)” value in assay [2] was 2.04 nM.
